Measurements as given in the nanobody polyreactivity screen of Harvey et al. (2022).

experiment: yeast display, Sf9 membrane polyspecificity reagent, FACS + sequencing; frameworks hold sequencing errors
Outline: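 Galactose induction of a Saccharomyces cerevisiae BJ5465 synthetic nanobody display library ran 36–48 hours. The cells were then stained for 1 hour at 4 °C with 10% biotinylated, detergent-solubilized Sf9 membrane reagent, pulled down on streptavidin microbeads and FACS-sorted into low and high (top ~1%) gates on expression and reagent-binding fluorescence. Labels for polyreactivity follow the gate of origin.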

Sequence	polyreactivity (PSR sort gate)
QVQLVESGGGLVQAGGSLRLSCAASGSNFRRNAMGWYRQAPGKERELVAAINSRGGSTYYADSVKGRFTISRDNAKNTVYLQMNSLKPEDTAVFYCATARFLRYDRYDDYWGQGTQVTVSS	low polyreactivity
QVQLVESGGGLVQAGGSLRLSCAASGSNFSYNAMGWYRQAPGKERELVATITTGGRTSYADSVKGRFTISRDNAKNTVYLQMNSLKPEDTAVYYCAAVGRFSSRPRVVYYGYDYWGQGTQVTVSS	low polyreactivity
QVQLVESGGGLVQAGGSLRLSCAASGSNFTANAMGWYRQAPGKERELVAAISRSGGRTYYADSVKGRFTISRDNAKNTVYLQMNSLKPEDTAVYYCNVGRFNTSGYDYWGQGTQVTVSS	high polyreactivity
QVQLVESGGGLVQAGGSLRLSCAASGSNFVIYAMGWYRQAPGKERELVAAIRFSTGSTYYADSVKVRFTNSRDYAKNTVYLQMNSLKPEDTAVYYCAAATWQWPWYDYWGQGTQVTVSS	high polyreactivity
QVQLVESGGGLVQAGGSLRLSCAASGSNFYFYAMGWYIQAPGKERELVADITWSGGSTYYADSVKGRFTISRDNAKNTVYLQMNSLKREDTAVYYCATDSWFGLEYWGQGTQVTVSS	high polyreactivity
QVQLVESGGGLVQAGGSLRLSCAASGSNFYGNAMGWYRQAPGKERELVAAISRSGGRSYYADSVKGRFTISRDNAKNTVYLHMNSLKPEATAVYYCAARQYQATLQYGYYPGYGYWGQGTQVTVSS	high polyreactivity
QVQLVESGGGLVQAGGSLRLSCAASGSNFYGYAMGWYRQAPGKERELVAAISSGGRTKYADSVKGRFTISRDNAKNTVYLQMNSLKPEDTAVYYCNVSYLVDRWKFGWSMDYWGQGNQVTVSS	low polyreactivity
QVQLVESGGGLVQAGGSLRLSCAASGSNIGLNAMGWSRQAPGKEREWVAAITRISGRTRYADSVKRRFTISRDNAKNTVSLQMNSLKPEDTAVYYCDARFQSTNGHKYYYWGQGTQVTVSS	high polyreactivity
QVQLVESGGGLVQAGGSLRLSCAASGSNLTFYAMGWYRQAPGKERELVAAITWRGGSTYYADSVKGRFTISRDNAKNTVYLQMNSLKPEDTAVYYCAAEQVGYYLNWRDYWGQGTQVTVSS	high polyreactivity
QVQLVESGGGLVQAGGSLRLSCAASGSNLVHYAIGWYRQAPGKERELVAASSRGGSTNYADSVKGRFTISRDNAKNTVYLQMNSLKPEDTAVYYCAARRPWGEYYWGQGTQVTVSS	low polyreactivity
QVQLVESGGGLVQAGGSLRLSCAASGSPFDYNAMGWYRPAPGKERELVAASDVSGDNTYYADSVKGRFTISRDNAKNTVYLQMNSLKPEETAVYYCNADDYWRGTSDYDYWGQGTQVTVSS	low polyreactivity
QVQLVESGGGLVQAGGSLRLSCAASGSPFGDSAMGWYRQAPGKERELVAAISVYGASTYYADSVKGRFTISRDNAKNTVYLHMNSLKPEDTEVYYCAATYDTIGDSWGQGTQVTVSS	low polyreactivity
QVQLVESGGGLVQAGGSLRLSCAASGSPFGSNAMGWYRQAPGKERELVAAISYGGDRTYYADSVKGRFTISRDNAKNTVYLQMISLKPEDTALYYCNARIYKGYNYWGQGTQVTVSS	high polyreactivity
QVQLVESGGGLVQAGGSLRLSCAASGSPFRRYAMGWYRQAPGTERELVAAISWRGGSTRYADSVKGRFTLSRDNAKNTVYLQMNSLKPEDTAVYYCAALGSYGNPPSYNYWGQGTQVTVSS	high polyreactivity
QVQLVESGGGLVQAGGSLRLSCAASGSPFSVYAMGWYRQAPGKERELVAAISWTVGSTYYADSVKGRFTISRDTAKNTVYLQMNSLIPEDTAVYYCAADIYWHYDYWGQGTQVTVSS	high polyreactivity
QVQLVESGGGLVQAGGSLRLSCAASGSSFDDKAMGWYRQAPGKERELVASITYRGGSTYYADSVKGRFTISRDHAKNTVNLHIKSLKPEVTAVYYCDKGHYFKYDYWGQGTQVTVSS	low polyreactivity
QVQLVESGGGLVQAGGSLRLSCAASGSSFDWNAMGWYRQAPGKERELVASITGSGGGTNYADSVKGRFTISRDNAKNTVYLQMNSLKPEDTAVYYCNADGLNFDGHEYWGQGTQVTVSS	low polyreactivity
QVQLVESGGGLVQAGGSLRLSCAASGSSFDWYVMGWYRQAPGKERELVAVISRSGGSTYYADSVKGRFTISRDNAKITVYLQMNSLTPEDTAVYSCGADSRSYYRDVDYWGQGTQVTVSS	low polyreactivity
QVQLVESGGGLVQAGGSLRLSCAASGSSFISNTMGWYRQAPGKERELVAAISSGGDTSYADSVKGRFTISRDNAKNTVYLQMNILKPEDTAVYYCNVDTSATSYSSEYDYWGQGTQVTVSS	low polyreactivity
QVQLVESGGGLVQAGGSLRLSCAASGSSFLSNTMGWYRQAPGKECELVAAITSGGDTSYADSVKGRFTISRDNAKNTVYLHMKILKADDTAVYYCNVDTSATCYSSEYDYWGQGTQVSVSS	low polyreactivity
QVQLVESGGGLVQAGGSLRLSCAASGSSFPGNAMGWYRQAPGKERELVARINDGADTNYADSVKGRFTISRDNAKNTVYLQMNSLKPEDTAVYYCAKPYYDGRTHFDSWGQGTQVTVSS	low polyreactivity
QVQLVESGGGLVQAGGSLRLSCAASGSSFRAYAMGWYRQAPGKERELVAVITYSGDRTYYADSVKGRFTISRDNAKNTVYLQMNSLKPEDTAVYYCAADLQYWHSYSYDDYYYWGQGTQVTVSS	low polyreactivity

Sequence	polyreactivity (PSR sort gate)
QVQLVESGGGLVQAGGSLRLSCAASGSSFRRNAMGWYRQAPGKERELVAAITRGGGSTYYADSVKGRFTISRDNAKNTVYLQMNSLKPEDTAVYYCAAQISATRETMDYWGQGTQVTVSS	high polyreactivity
QVQLVESGGGLVQAGGSLRLSCAASGSSFSHNVMGWYRQAPRKERELVATINWSGGSTYYADSVKGRFTISRDNAKKSDYLQMNSLKPEDTAVYYCAADRQITVYAYDYWGQGTQVTVSS	low polyreactivity
QVQLVESGGGLVQAGGSLRLSCAASGSSFYPYAMGWYRQAPGKERELVAAISRRGGSTYYADSVKGRFTISRDNAKNTVYLQMNSLKPVDTEVYYCNVVTDSPYPVDYWGQGTQVTVSS	high polyreactivity
QVQLVESGGGLVQAGGSLRLSCAASGSTCDYNAMGWYRQAPGKERELVAAITSTGGNTYYADSVKGRFTISRDKAKNTVYLQMNSLKPADTAVYYCNKDVARYPYGKFDYWGQGTQVTVSS	low polyreactivity
QVQLVESGGGLVQAGGSLRLSCAASGSTCVNNDMGLYRQAPGKEGELVAGITTSGGSTYYADSVKGRFTISRDKAKNTVYLQMNSLKPEDTAVYYCAARAFSAWLEMDYWGQCTQVTVSS	low polyreactivity
QVQLVESGGGLVQAGGSLRLSCAASGSTFAANAMGWYRQAPGKERELVAAITSSGGSTYYADSVKGRFTISRDNAKNTVYLQMNSLKPEDTAVYYRNKDIERYVRIYDSWGQGTQVTVSS	low polyreactivity
QVQLVESGGGLVQAGGSLRLSCAASGSTFAAYAMGWYRQAPGKERELVAAISGGRTYYADSVKGRFTISRDNAKNTVYLEMYSLKPEDTAVYYCAKRYFYYTAFNAYGYWGQGTQVTVSS	high polyreactivity
QVQLVESGGGLVQAGGSLRLSCAASGSTFAAYVMGWYRQAPGKERELVAAISTSGGGTYYADSVKGRFTISRDTAKNTVYLQMNSLKPEDTAVYYCAADYGSGSVSYDYWGQGTQVTVSS	low polyreactivity
QVQLVESGGGLVQAGGSLRLSCAASGSTFAFYAMGWYRPAPGKERELVAAITWDGGTTYYADSVKGRFTIARDNAKNTVYLQMNSLKPEDSAVYYCAADYASVSIYDNVPSAPGYDYWGQGTQVTVSS	low polyreactivity
QVQLVESGGGLVQAGGSLRLSCAASGSTFAFYAMGWYRQAPGKERELVAAISFSGGSTYYADSVKGRFTISRDNAKNTVYLQMNSLKPEDTAVYYCNARYPNTRKYDYWGQGTQVTVSS	high polyreactivity
QVQLVESGGGLVQAGGSLRLSCAASGSTFAGNAMGWSRQAPGKERELVAGITSSGARTYYADSVKGRFTISRDNAKNTVYLQMNSLKPEDTAVYYCNKYHFSPYDYWGQGTQVTVSS	high polyreactivity
QVQLVESGGGLVQAGGSLRLSCAASGSTFAGNAMGWYRQAPGKEREFVAAITISVGSTYYADSVKGRFTISRDNAKNTVYLQMNSLTPEDTAVYYCAADFAYYVSLPSRFVYAGYYYWGQGTQVTVTS	low polyreactivity
QVQLVESGGGLVQAGGSLRLSCAASGSTFAGNAMGWYRQAPGKERELVAASTFSGGRTDYADSVKGRFTISRDNAKNTVYLQMNSLNPEDSAVYYCAAPADDTVHYQNYYWGQGTQVTVSS	low polyreactivity
QVQLVESGGGLVQAGGSLRLSCAASGSTFAGYAMGWYRQAPGKERELVATITYSGGSTYYADSVKGRFTISRDNAKNTVYLQKNSLKPEDTAVYYCAKKASYWWGYEYWGQGTQVTVSS	low polyreactivity
QVQLVESGGGLVQAGGSLRLSCAASGSTFAGYTMGWYRQAPGKERELVAAITGGGSTYYADSVKGRFTISRDNAKNTVYLQMNSLKPEDTAVYYCAARWWTYGIGYGYWGQGTQVTVSS	high polyreactivity
QVQLVESGGGLVQAGGSLRLSCAASGSTFAKNAMGWYRQAPGKERELVAAISSGGSTYYADSVKGRFTISRDNAKNTVYLQMNSLKPEDTAVYYCAASWKQGYRTYGYWGQGTQVTVSS	high polyreactivity
QVQLVESGGGLVQAGGSLRLSCAASGSTFAKNAMGWYSQAPGIDRELVAAISSGGSTYYADSVKGRFTIARDNAKNTVYLQMNSLKPEDTAVYYCAASWIQGYRTYGYWGQGTQVTVSS	high polyreactivity
QVQLVESGGGLVQAGGSLRLSCAASGSTFAKYAMGWYRQAPGKERELVASIRLSGGSTYYADSVKGRFTISRDNAKNTVYLQMNSLNPEDTAVYYCNKQFATFYYGFDYYYWGQGTQVTVSS	low polyreactivity
QVQLVESGGGLVQAGGSLRLSCAASGSTFAKYAMGWYRQAPGKERELVATITDGGSTYYADSVKGRFTISRDNAKNTVYLQMNRMKPEDTAVYYCNAVILYWLYTSYVAGWPYDYWGQGTQVTVSS	high polyreactivity
QVQLVESGGGLVQAGGSLRLSCAASGSTFAKYVMGWYRQAHGKERELVAAISRRGSSTYYADSVKGRFTISRDNAKNTVYLQMNSLKPEDTAVYYCAARFRYSGFEGMDYWGQGTQVTVSS	high polyreactivity
QVQLVESGGGLVQAGGSLRLSCAASGSTFANNAMGWYRQAPGKERELVAAISWSGGSTYYADSVKGRFTISRDNAKNTVYLQMNSLKPEDTAVYYCAADSPRYGGYGYWGQGTKVTVSS	low polyreactivity
